Five molecules from patent US20140086913A1 (Gilead, published 2014) can be followed below.

B1: AB2009 (antibody, V domains shown)
VH: EVQLVESGGGLVQPGGSLKFSCAASGFTFSSYGMSWVRQTPDKRLELVAIINSHGFSTYYPDSVKGRFTISRDNAKNTLYLQMSSLKSEDTAIYYCARGGYGNYGMDYWGQGTSVTVSS
VL: DIVLTQSPASLAVSLGQRATISCRASESVDSYGNSFMHWYQQKVGQPPKLLIFRASNIESGIPARFSGSGSRTDFTLTINSVEADDVATYYCQQSNEAPYTFGGGTKLEIKR
notes: mouse hybridoma mAb
B2: AB2026 (antibody, V domains shown)
VH: B1 VH
VL: B1 VL
notes: mouse hybridoma mAb
B3: AB2031 (antibody, V domains shown)
VH: B1 VH
VL: B1 VL
notes: mouse hybridoma mAb
B4: AB2074 (antibody, V domains shown)
VH: EIQLQQSGPELVNPGASVKVSCKASGYSFTDYNMYWVKQSHGKSLEWIGYIDPYNGGTSYNQKFKGKATLTVDKSSSTAFMHLNSLTSEDSAVYYCAREYYGSRLWYFDVWGAGTAVTVSS
VL: DIVMTQSPSSLAMSVGQKVTMSCKSSQSLLNRNNQKNYLAWYQQKPGQSPKLLVYFASTRESGVPDRFIGSGSGTDFTLTLSSVRAEDLAENFCQQHYSTPFTFGSGTRLEIKR
notes: mouse hybridoma mAb
B5: AB2061 (antibody, V domains shown)
VH: B4 VH
VL: B4 VL
notes: mouse hybridoma mAb

The target in one experiment is T1, DDR1ECD-Fc (R&D Systems, Catalog #2396-DR) (human, UniProt Q08345 21-416).
T1 construct: range 21-416; construct as described for the bought immunogen; also called human ECD-DDR1-Fc; Fc-ECD-DR1; not shown: human IgG1, Pro100-Lys330
The experiment in a line: ELISA. A general note: In an ELISA, binding on a coated surface is turned into a signal by an enzyme label.
As to B1, the Kd was 0.257 nM.

Take B2: the Kd amounted to 0.298 nM.

Regarding B3, the Kd turned out to be 0.257 nM.

Regarding B4, the Kd worked out at 0.259 nM.

A further experiment has as its target DDR1 endogenously expressed on human cancer cell lines (T47D, HCT-116, A431) (human) (UniProt Q08345). Kind of experiment: cell-based or functional assay.
With B1, the EC50, DDR1 phospho-specific ELISA (T47D) stood at 0.47 nM; the EC50, cluster formation assay (A431 cells) was found to be 0.43 nM; the Maximal inhibition, DDR1 phospho-specific ELISA (T47D) was found to be 100%; the NPI of cluster formation at 66 nM (A431 cells) was determined as 127%.

In the case of B2, the EC50, DDR1 phospho-specific ELISA (T47D) amounted to 0.39 nM; the Maximal inhibition, DDR1 phospho-specific ELISA (T47D) turned out to be 100%; the NPI of cluster formation at 66 nM (A431 cells) came to 115%.

Regarding B3, the EC50, DDR1 phospho-specific ELISA (T47D) came out at 0.4 nM; the EC50, cluster formation assay (A431 cells) was 0.63 nM; the Maximal inhibition, DDR1 phospho-specific ELISA (T47D) came to 100%; the NPI of cluster formation at 66 nM (A431 cells) worked out at 113%.

The molecule B5 returned an EC50, DDR1 phospho-specific ELISA (T47D) of 0.66 nM; an EC50, cluster formation assay (A431 cells) of 0.88 nM; a Maximal inhibition, DDR1 phospho-specific ELISA (T47D) of 100%; an NPI of cluster formation at 66 nM (A431 cells) of 126%.

As for B4, the EC50, DDR1 phospho-specific ELISA (T47D) turned out to be 0.47 nM; the Maximal inhibition, DDR1 phospho-specific ELISA (T47D) worked out at 100%; the NPI of cluster formation at 66 nM (A431 cells) was 112%.

In a further experiment the target is DDR1 with a ProLink Tag (PK) in engineered U20S cells (DiscoveRx) (UniProt Q08345). Kind of experiment: cell-based or functional assay.
Molecule B5 came in with a Mean EC50, DDR1 Tyr513 phosphorylation assay (U20S) of 2.5 nM.

B4 showed a Mean EC50, DDR1 Tyr513 phosphorylation assay (U20S) of 1.5 nM.

The target of a further experiment is DDR1 endogenously expressed on human cancer cell lines (T47D, HCT-116, A431) (human) (UniProt Q08345). Kind of experiment: flow cytometry, T47D cells.
Consider B1, for which the MFI was found to be 5930 MFI.

On to B2, for which the MFI is 4670 MFI.

The molecule B3 registered an MFI of 4600 MFI.

Molecule B5 displayed an MFI of 4620 MFI.

Molecule B4 yielded an MFI of 4420 MFI.

A further experiment shares this target. Kind of experiment: flow cytometry, HCT116 cells. In general terms: A flow cytometer gives signals particle by particle.
For B1, the MFI is 1480 MFI.

For the molecule B2, the MFI amounted to 1540 MFI.

B3 returned an MFI of 1460 MFI.

Molecule B5 yielded an MFI of 1200 MFI.

In the case of B4, the MFI worked out at 1470 MFI.

The next experiment deals with human DDR1 (isoform B) stably expressed on HEK293 cells (human) (UniProt Q08345). Kind of experiment: flow cytometry, HEK293/hDDR1.
Chain of human DDR1 (isoform B) stably expressed on HEK293 cells (human) (Q08345 19-913): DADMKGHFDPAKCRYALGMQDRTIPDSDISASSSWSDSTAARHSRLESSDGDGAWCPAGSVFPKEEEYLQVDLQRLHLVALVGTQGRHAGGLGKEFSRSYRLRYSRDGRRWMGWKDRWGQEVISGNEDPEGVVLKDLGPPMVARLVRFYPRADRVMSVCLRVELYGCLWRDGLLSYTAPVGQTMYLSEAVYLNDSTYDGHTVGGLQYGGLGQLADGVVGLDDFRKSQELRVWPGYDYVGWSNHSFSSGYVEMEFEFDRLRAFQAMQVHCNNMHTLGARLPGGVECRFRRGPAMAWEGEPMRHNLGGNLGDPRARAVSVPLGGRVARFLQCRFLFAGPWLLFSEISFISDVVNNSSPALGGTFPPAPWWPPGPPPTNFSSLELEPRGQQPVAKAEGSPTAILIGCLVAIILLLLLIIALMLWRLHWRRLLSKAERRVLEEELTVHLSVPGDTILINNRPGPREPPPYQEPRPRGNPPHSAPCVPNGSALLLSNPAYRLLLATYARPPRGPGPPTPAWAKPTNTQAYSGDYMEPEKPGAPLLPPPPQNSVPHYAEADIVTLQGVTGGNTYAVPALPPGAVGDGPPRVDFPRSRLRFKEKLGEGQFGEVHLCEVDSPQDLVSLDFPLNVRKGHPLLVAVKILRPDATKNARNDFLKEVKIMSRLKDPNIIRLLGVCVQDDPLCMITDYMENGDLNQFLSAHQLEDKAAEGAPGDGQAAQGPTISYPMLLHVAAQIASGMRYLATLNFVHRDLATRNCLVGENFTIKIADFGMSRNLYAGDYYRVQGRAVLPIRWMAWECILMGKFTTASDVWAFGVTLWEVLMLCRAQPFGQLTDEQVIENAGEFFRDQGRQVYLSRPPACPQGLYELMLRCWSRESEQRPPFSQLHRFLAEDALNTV
B1: the MFI turned out to be 11900 MFI.

For B2, the MFI was 6350 MFI.

For B3, the MFI was determined as 8540 MFI.

Molecule B5 had an MFI of 7500 MFI.

Regarding B4, the MFI came to 7810 MFI.

The target in another experiment is DDR1 with a ProLink Tag (PK) in engineered U20S cells (DiscoveRx), Q08345. The experiment in a line: cell-based or functional assay.
B1 registered a Mean EC50, DDR1 Tyr513 phosphorylation assay (U20S) of 1.5 nM.

As to B2, the Mean EC50, DDR1 Tyr513 phosphorylation assay (U20S) is 1.7 nM.

For B3, the Mean EC50, DDR1 Tyr513 phosphorylation assay (U20S) was determined as 0.99 nM.

A further experiment concerns the target T2, human DDR2 stably expressed on HEK293 cells (human, UniProt Q16832 22-855).
T2 construct: whole, on cells; also called hDDR2
T2 sequence (looked up): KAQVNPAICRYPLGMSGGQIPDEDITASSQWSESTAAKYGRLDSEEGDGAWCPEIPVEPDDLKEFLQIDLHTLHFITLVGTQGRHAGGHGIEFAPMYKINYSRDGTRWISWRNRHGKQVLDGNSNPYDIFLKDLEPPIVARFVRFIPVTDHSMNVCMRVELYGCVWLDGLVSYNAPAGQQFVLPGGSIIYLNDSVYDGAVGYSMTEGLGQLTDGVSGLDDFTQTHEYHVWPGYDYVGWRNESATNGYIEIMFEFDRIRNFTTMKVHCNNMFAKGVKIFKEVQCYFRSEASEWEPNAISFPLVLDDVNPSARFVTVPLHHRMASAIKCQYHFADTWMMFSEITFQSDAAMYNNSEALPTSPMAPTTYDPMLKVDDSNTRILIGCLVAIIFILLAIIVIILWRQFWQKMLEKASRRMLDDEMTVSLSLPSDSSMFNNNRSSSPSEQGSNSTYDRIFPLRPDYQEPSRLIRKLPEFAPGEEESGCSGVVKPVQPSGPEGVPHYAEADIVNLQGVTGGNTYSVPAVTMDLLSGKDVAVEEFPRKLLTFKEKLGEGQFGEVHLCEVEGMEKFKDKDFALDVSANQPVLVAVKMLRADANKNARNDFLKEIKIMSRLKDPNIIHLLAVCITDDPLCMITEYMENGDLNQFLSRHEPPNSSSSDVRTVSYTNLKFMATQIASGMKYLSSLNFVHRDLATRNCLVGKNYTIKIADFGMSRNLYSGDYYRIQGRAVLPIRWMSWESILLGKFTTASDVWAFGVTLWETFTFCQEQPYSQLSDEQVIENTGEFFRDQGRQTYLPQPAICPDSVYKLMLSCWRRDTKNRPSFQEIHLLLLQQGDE
The experiment in a line: flow cytometry, HEK293/hDDR2. As to the method:
Additional monoclonal antibodies were obtained from individual hybridomas in Example 1 and were characterized for their properties.
Cells were cultured in DMEM with 10% FBS and 0.8 mg/mL hygromycin. When cells reached 60-80% confluence, they were centrifuged at 1,200 rpm for 5 minutes, suspended in FACS buffer (1×PBS, 1% BSA), and aliquoted into a 96-well plate at 1×10⁶ cells per well. The anti-DDR1 monoclonal antibodies or appropriate isotype controls at 2 μg per 1×10⁶ cells were added and incubated at 4° C. for 1 hr. The cells were washed twice with FACS buffer then stained with the anti-IgG-PE secondary antibody at 10 μL per well at 4° C. for 1 hr. The cells were washed again and measured for the MFI values or signals using flow cytometry (LSR Fortessa instrument, BD Biosciences). Background MFI signals from vector-only cells (i.e. no DDR1 or DDR2 expression) was subtracted from those of the cells treated with antibodies. Higher MFI values or signals indicated increased binding or specificity of the anti-DDR1 antibodies to the DDR1 on the cell surface.
On to B1, for which the MFI turned out to be 277 MFI.

Molecule B2 returned an MFI of 203 MFI.

Turning to B3, the MFI was determined as 195 MFI.

B5: the MFI is 384 MFI.

B4 returned an MFI of 382 MFI.

The next experiment deals with T1, DDR1ECD-Fc (R&D Systems, Catalog …). Kind of experiment: ELISA, coated antigen, apparent KD. As to the method:
(§1) In this study, ELISA was used to determine the affinity of murine anti-DDR1 monoclonal antibodies to the extracellular domain (ECD) of either human or murine DDR1. A 96-well MaxiSorb ELISA plates (Nunc) were coated with 2 μg/mL of one of three purified recombinant tagged proteins: human ECD-DDR1-His protein, human ECD-DDR1-Fc, or mouse ECD-DDR1-Fc overnight at 4° C. The next day, the plates were blocked with 5% bovine serum albumin (BSA, Jackson Immunoresearch) prior to the addition of serially diluted anti-DDR1 monoclonal antibodies. Antibodies were incubated for 1 hr at room temperature. The binding of antibody to the antigen was detected by incubating samples with anti-mouse IgG-HRP (horse radish peroxidase) secondary detection antibody (Jackson Immunoresearch) for 1 hr. After a washing step, 3,3′,5,5″-tetramethylbenzidine (TMB) reagent was added for HRP to produce a colorimetric signal. The reaction was stopped by addition of 1M hydrochloric acid after 2 minutes and measured for absorbance (optical density, OD) at 450λ on a Molecular Devices plate reader. The OD values were plotted against antibody concentration and fitted using a using 4-parameter logistic equation in SoftMax software (Molecular Devices). The apparent affinity constant (KD) was taken from the C-parameter of the equation (y=(A−D)/(1+(x/C)̂B)+D). The apparent affinity constants were summarized (in some cases shown as average values) in Table 10 below. Lower value indicates higher binding affinity of the antibody to the antigen.
Take B1: the Kd was 0.257 nM.

B2: the Kd was 0.298 nM.

For the molecule B3, the Kd is 0.257 nM.

Consider B5, for which the Kd stood at 0.418 nM.

Consider B4, for which the Kd was 0.259 nM.

The target in the next experiment is T3, human ECD-DDR1-His protein (human, UniProt Q08345 21-416).
T3 construct: also called huDDR1-ECD-His; DDR1ECD-6Xhis; not shown: His tag
Kind of experiment: ELISA, coated antigen, apparent KD. The protocol:
as §1
Turning to B1, the Kd was 0.197 nM.

In the case of B2, the Kd stood at 0.161 nM.

B3: the Kd worked out at 0.148 nM.

Consider B5, for which the Kd is 0.391 nM.

B4: the Kd amounted to 0.47 nM.

For the next experiment, the target named is T4, mouse ECD-DDR1-Fc (mouse; human, UniProt Q03146 22-414).
T4 construct: also called mouse DDR1-ECD; wild-type mouse DDR1-ECD; not shown: human IgG1 Fc of the vector pFuse-hIgG1-Fc1 (Invivogen)
T4 sequence: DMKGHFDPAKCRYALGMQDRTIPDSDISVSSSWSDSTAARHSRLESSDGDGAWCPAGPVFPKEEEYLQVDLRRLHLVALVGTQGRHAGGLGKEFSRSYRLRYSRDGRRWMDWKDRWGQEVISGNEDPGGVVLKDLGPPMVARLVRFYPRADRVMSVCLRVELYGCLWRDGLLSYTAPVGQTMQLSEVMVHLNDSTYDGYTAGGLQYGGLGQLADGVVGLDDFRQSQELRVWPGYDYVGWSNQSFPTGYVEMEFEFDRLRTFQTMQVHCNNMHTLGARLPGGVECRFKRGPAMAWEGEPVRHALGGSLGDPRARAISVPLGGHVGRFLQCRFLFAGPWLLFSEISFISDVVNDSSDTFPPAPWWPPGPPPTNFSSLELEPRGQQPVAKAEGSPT
Kind of experiment: ELISA, coated antigen, apparent KD. As to the method:
as §1
As to B1, the Kd is 6.93 nM.

Regarding B2, the Kd was 17.9 nM.

Turning to B3, the Kd was found to be 17.3 nM.

For the molecule B5, the Kd is 28 nM.

With B4, the Kd stood at 28.5 nM.

Another experiment has as its target human DDR1 (isoform B) stably expressed on HEK293 cells (human) (UniProt Q08345). The experiment in a line: flow cytometry, HEK293/human DDR1, normalized to empty-vector cells.
On to B1, for which the MFI came out at 11900 MFI.

Molecule B2 yielded an MFI of 6350 MFI.

In turn, B3 came in with an MFI of 8540 MFI.

Consider B4, for which the MFI was determined as 7810 MFI.
